Where two headings read alike, the source gives them in different places.
What was measured:
HLA-A*1101 (human) [1] = assay: competition with 125I-labelled standard peptide on purified HLA-A*1101, gel filtration
HLA-A*0201 (human) [2] = assay: competition with 125I-labelled standard peptide on purified HLA, gel filtration
HLA-A*2402 (human) = assay: competition with 125I-labelled standard peptide for purified HLA-A*2402, gel filtration
HLA-A*0301 (human) [3] = assay: competitive inhibition of 125I-labelled standard peptide binding to purified HLA, gel filtration
HLA-A*1101 (human) [4] = assay: as above
HLA-A*0301 (human) [5] = assay: competition with 125I-labeled standard peptide for purified HLA-A*0301, gel filtration
HLA-A*0301 (human) [6] = assay: competitive inhibition of 125I-labelled standard peptide binding to purified HLA-A*0301, gel filtration
HLA-B*0702 (human) = assay: competition with 125I-labelled standard peptide for purified HLA, gel filtration
HLA-B*5101 (human) = assay: as above
HLA-B*5301 (human) = assay: as above
HLA-A*1101 (human) [7] = assay: competition with 125I-labelled standard peptide for purified HLA-A*1101, gel filtration
HLA-A*0201 (human) [8] = assay: competition with 125I-labeled standard peptide for purified HLA-A*0201, gel filtration
HLA-B*3501 (human) = assay: competition with 125I-labelled standard peptide for purified HLA, gel filtration
HLA-B*5401 (human) = assay: as above
[9] = remark: other sources report otherwise

CMSCCRSSR (modifications not checked) [… (HPV16 E6, position 143, 9 amino acids)]
binding affinity ratio (IC50 of standard peptide / IC50 of test peptide) (ratio to standard peptide) (HLA-A*1101 (human) [1]): 0.0001

TLRLCVQSTHV (modifications not checked)
binding affinity ratio (IC50 of standard peptide / IC50 of test peptide) (HLA-A*0201 (human) [2]): 0.0006

HYCYSLYGTTL (modifications not checked) [HPV16 E6 85 …]
binding affinity ratio (IC50 of standard peptide / IC50 of test peptide) (HLA-A*2402 (human)): 0.065
relative binding ratio (IC50 of standard peptide / IC50 of test peptide) (ratio to standard peptide) (HLA-A*2402 (human)): 0.065

LILALLRYK (modifications not checked) [HPV18 E1 position 281 peptide …]
binding affinity ratio (IC50 of standard peptide / IC50 of test peptide) (HLA-A*0301 (human) [3]): 0.27
binding affinity ratio (IC50 of standard peptide / IC50 of test peptide) (HLA-A*1101 (human) [4]): 0.18

QLFLNTLSF (modifications not checked) [HPV18 E7 88-96 peptide …]
relative binding ratio (IC50 of standard peptide / IC50 of test peptide) (HLA-A*0301 (human) [5]): 0.0005

STLRLCVQST (modifications not checked) [HPV16 E7 63 …]
binding affinity ratio (IC50 of standard peptide / IC50 of test peptide) (HLA-A*0201 (human) [2]): 0.0012

FTFPNPFPF (modifications not checked) [HPV31 E1 566 … (A03 motif peptide)]
relative binding ratio (IC50 of standard peptide / IC50 of test peptide) (ratio to standard peptide) (HLA-A*0301 (human) [6]): 0.0008

LCPEEKQRH (modifications not checked) [… (HPV16 E6, position 117, 9 amino acids)]
binding affinity ratio (IC50 of standard peptide / IC50 of test peptide) (ratio to standard peptide) (HLA-A*1101 (human) [1]): 0.0001

PPKLRSTAA (modifications not checked) [HPV31 E1 289 peptide … (B07 supermotif peptide)]
binding affinity ratio (IC50 of standard peptide / IC50 of test peptide) (HLA-B*0702 (human)): 0.0014

CPEEKQRHL (modifications not checked) [HPV31 E6 111 …]
relative binding ratio (IC50 of standard peptide / IC50 of test peptide) (HLA-B*5101 (human)): 0.0074
relative binding ratio (IC50 of standard peptide / IC50 of test peptide) (HLA-B*5301 (human)): 0.0006

NIHPAKDNR (modifications not checked) [HPV18 E1 position 574 peptide …]
binding affinity ratio (IC50 of standard peptide / IC50 of test peptide) (HLA-A*0301 (human) [3]): 0.0005
binding affinity ratio (IC50 of standard peptide / IC50 of test peptide) (HLA-A*1101 (human) [4]): 0.0002

GIVCPICSQK (modifications not checked) [HPV16 E7 88 …]
relative binding ratio (IC50 of standard peptide / IC50 of test peptide) (ratio to standard peptide) (HLA-A*0301 (human) [6]; [9]): 0.0003

AVCDKCLKFY (modifications not checked) [… (HPV16 E6, position 68, 10 amino acids)]
binding affinity ratio (IC50 of standard peptide / IC50 of test peptide) (ratio to standard peptide) (HLA-A*1101 (human) [1]): 0.019

RIKLVVESSA (modifications not checked) [HPV18 E7 71-80 peptide …]
relative binding ratio (IC50 of standard peptide / IC50 of test peptide) (HLA-A*0301 (human) [5]): 0.0005

AVCDKCLK (modifications not checked) [AVCDKCLK (HPV16 E6, position 68, 8 amino acids)]
binding affinity ratio (IC50 of standard peptide / IC50 of test peptide) (ratio to standard peptide) (HLA-A*1101 (human) [1]): 0.011

KLRAGQNHR (modifications not checked) [HPV18 E1 position 647 peptide …]
binding affinity ratio (IC50 of standard peptide / IC50 of test peptide) (HLA-A*1101 (human) [7]): 0.0013
binding affinity ratio (IC50 of standard peptide / IC50 of test peptide) (HLA-A*0301 (human) [3]): 0.3
binding affinity ratio (IC50 of standard peptide / IC50 of test peptide) (HLA-A*1101 (human) [4]): 0.0013

LTTNIHPAK (modifications not checked) [HPV18 E1 position 571 peptide …]
binding affinity ratio (IC50 of standard peptide / IC50 of test peptide) (HLA-A*0301 (human) [3]): 0.091
binding affinity ratio (IC50 of standard peptide / IC50 of test peptide) (HLA-A*1101 (human) [4]): 0.12

KSFLKGTPK (modifications not checked) [HPV18 E1 position 468 peptide …]
binding affinity ratio (IC50 of standard peptide / IC50 of test peptide) (HLA-A*1101 (human) [7]): 0.0015
binding affinity ratio (IC50 of standard peptide / IC50 of test peptide) (HLA-A*0301 (human) [3]): 0.0003
binding affinity ratio (IC50 of standard peptide / IC50 of test peptide) (HLA-A*1101 (human) [4]): 0.0015

TLEDLLMGTL (modifications not checked)
binding affinity ratio (IC50 of standard peptide / IC50 of test peptide) (HLA-A*0201 (human) [2]): 0.0002

AMFQDPQER (modifications not checked) [… (HPV16 E6, position 7, 9 amino acids)]
binding affinity ratio (IC50 of standard peptide / IC50 of test peptide) (ratio to standard peptide) (HLA-A*1101 (human) [1]; [9]): 0.032

CCKCDSTLR (modifications not checked) [HPV16 E7 58 …]
relative binding ratio (IC50 of standard peptide / IC50 of test peptide) (ratio to standard peptide) (HLA-A*0301 (human) [6]): 0.0003

CCRSSRTRR (modifications not checked) [… (HPV16 E6, position 146, 9 amino acids)]
binding affinity ratio (IC50 of standard peptide / IC50 of test peptide) (ratio to standard peptide) (HLA-A*1101 (human) [1]): 0.0001

HYSDSVYGDTL (modifications not checked) [HPV18 E6 80-90 peptide …]
relative binding ratio (IC50 of standard peptide / IC50 of test peptide) (ratio to standard peptide) (HLA-A*2402 (human)): 0.0069

VVESSADDL (modifications not checked) [HPV18 E7 peptide … (position 75, 9 amino acids)]
relative binding ratio (IC50 of standard peptide / IC50 of test peptide) (ratio to standard peptide) (HLA-A*0201 (human) [8]): 0.0003

YMLDLQPET (modifications not checked) [HPV16 E7 11 …]
binding affinity ratio (IC50 of standard peptide / IC50 of test peptide) (HLA-A*0201 (human) [2]): 0.14

NSGQKKAKR (modifications not checked) [HPV18 E1 position 119 peptide …]
binding affinity ratio (IC50 of standard peptide / IC50 of test peptide) (HLA-A*0301 (human) [3]): 0.0005
binding affinity ratio (IC50 of standard peptide / IC50 of test peptide) (HLA-A*1101 (human) [4]): 0.0002

HLDKKQRFH (modifications not checked) [… (HPV16 E6, position 125, 9 amino acids)]
binding affinity ratio (IC50 of standard peptide / IC50 of test peptide) (ratio to standard peptide) (HLA-A*1101 (human) [1]; [9]): 0.0001

EYRHYCYSL (modifications not checked) [HPV16 E6 82 …]
binding affinity ratio (IC50 of standard peptide / IC50 of test peptide) (HLA-A*2402 (human)): 0.0051
relative binding ratio (IC50 of standard peptide / IC50 of test peptide) (ratio to standard peptide) (HLA-A*2402 (human)): 0.0051

GNPYAVCDK (modifications not checked) [… (HPV16 E6, position 64, 9 amino acids)]
binding affinity ratio (IC50 of standard peptide / IC50 of test peptide) (ratio to standard peptide) (HLA-A*1101 (human) [1]): 0.0001

YCKQQLLRR (modifications not checked) [HPV16 E6 39 …]
relative binding ratio (IC50 of standard peptide / IC50 of test peptide) (ratio to standard peptide) (HLA-A*0301 (human) [6]): 0.0003

KLTNTGLYNL (modifications not checked) [HPV18 E6 92-101 peptide …]
relative binding ratio (IC50 of standard peptide / IC50 of test peptide) (ratio to standard peptide) (HLA-A*2402 (human)): 0.0001

TLRLCVQST (modifications not checked)
binding affinity ratio (IC50 of standard peptide / IC50 of test peptide) (HLA-A*0201 (human) [2]): 0.0061

NIRGRWTGR (modifications not checked) [… (HPV16 E6, position 134, 9 amino acids)]
binding affinity ratio (IC50 of standard peptide / IC50 of test peptide) (ratio to standard peptide) (HLA-A*1101 (human) [1]): 0.0005

DPTRRPYKL (modifications not checked) [HPV18 E6 peptide … (position 6, 9 amino acids)]
binding affinity ratio (IC50 of standard peptide / IC50 of test peptide) (HLA-B*0702 (human)): 0.0001
binding affinity ratio (IC50 of standard peptide / IC50 of test peptide) (HLA-B*3501 (human)): 0.0001
binding affinity ratio (IC50 of standard peptide / IC50 of test peptide) (HLA-B*5101 (human)): 0.0001
binding affinity ratio (IC50 of standard peptide / IC50 of test peptide) (HLA-B*5301 (human)): 0.0001
binding affinity ratio (IC50 of standard peptide / IC50 of test peptide) (HLA-B*5401 (human)): 0.0002

HGDTPTLHEY (modifications not checked) [HPV16 E7 2 …]
relative binding ratio (IC50 of standard peptide / IC50 of test peptide) (ratio to standard peptide) (HLA-A*0301 (human) [6]; [9]): 0.0001

GPKATLQDI (modifications not checked) [HPV18 E7 peptide … (position 3, 9 amino acids)]
binding affinity ratio (IC50 of standard peptide / IC50 of test peptide) (HLA-B*3501 (human)): 0.0001
binding affinity ratio (IC50 of standard peptide / IC50 of test peptide) (HLA-B*5101 (human)): 0.0001
binding affinity ratio (IC50 of standard peptide / IC50 of test peptide) (HLA-B*5301 (human)): 0.0001
binding affinity ratio (IC50 of standard peptide / IC50 of test peptide) (HLA-B*5401 (human)): 0.0002

TLEDLLMGT (modifications not checked)
binding affinity ratio (IC50 of standard peptide / IC50 of test peptide) (HLA-A*0201 (human) [2]; [9]): 0.0002

LSFVCPWCA (modifications not checked) [HPV18 E7 94-102 peptide …]
relative binding ratio (IC50 of standard peptide / IC50 of test peptide) (HLA-A*0301 (human) [5]): 0.0005

VTFCCKCDST (modifications not checked) [HPV16 E7 55 …]
binding affinity ratio (IC50 of standard peptide / IC50 of test peptide) (HLA-A*0201 (human) [2]): 0.0001

QAEPDRAHY (modifications not checked) [HPV16 E7 44 …]
relative binding ratio (IC50 of standard peptide / IC50 of test peptide) (ratio to standard peptide) (HLA-A*0301 (human) [6]): 0.0002

CVQSTHVDIR (modifications not checked) [HPV16 E7 68 …]
relative binding ratio (IC50 of standard peptide / IC50 of test peptide) (ratio to standard peptide) (HLA-A*0301 (human) [6]): 0.0049

WTYFDTYMR (modifications not checked) [HPV18 E1 position 536 peptide …]
binding affinity ratio (IC50 of standard peptide / IC50 of test peptide) (HLA-A*0301 (human) [3]): 0.0005
binding affinity ratio (IC50 of standard peptide / IC50 of test peptide) (HLA-A*1101 (human) [4]): 0.012

IVYRDGNPY (modifications not checked) [… (HPV16 E6, position 59, 9 amino acids)]
binding affinity ratio (IC50 of standard peptide / IC50 of test peptide) (ratio to standard peptide) (HLA-A*1101 (human) [1]; [9]): 0.15

QVLHVLKRK (modifications not checked) [HPV18 E1 80-88 peptide …]
binding affinity ratio relative to standard peptide (IC50 standard / IC50 test) (HLA-A*0301 (human) [5]): 0.0028

IVCPICSQK (modifications not checked) [HPV16 E7 89 …]
relative binding ratio (IC50 of standard peptide / IC50 of test peptide) (ratio to standard peptide) (HLA-A*0301 (human) [6]; [9]): 0.0077

TMLCMCCK (modifications not checked) [HPV18 E7 60-67 peptide TMLCMCCK]
relative binding ratio (IC50 of standard peptide / IC50 of test peptide) (HLA-A*0301 (human) [5]): 0.024

QVLHVLKRK (modifications not checked) [HPV18 E1 position 80 peptide …]
binding affinity ratio (IC50 of standard peptide / IC50 of test peptide) (HLA-A*0301 (human) [3]): 0.0028
binding affinity ratio (IC50 of standard peptide / IC50 of test peptide) (HLA-A*1101 (human) [4]): 0.002

Reference: US7026443
